Measured values published in the supplement of paper PMC11246515.
± gives the standard deviation of the averaged measurements.

Test: total protein half-life in vivo (active degradation + dilution); higher = more stable protein
[1] = E. coli NCM3722 delta-clpP, growth: N-lim chemostat, doubling time 6 h
[2] = E. coli NCM3722 delta-lon, growth: N-lim chemostat, doubling time 6 h
[3] = wild type E. coli NCM3722, growth: C-lim chemostat, doubling time 3 h
[4] = wild type E. coli NCM3722, growth: C-lim chemostat, doubling time 6 h
[5] = wild type E. coli NCM3722, growth: C-lim chemostat, doubling time 12 h
[6] = wild type E. coli NCM3722, growth: N-lim chemostat, doubling time 6 h
[7] = wild type E. coli NCM3722, growth: N-lim chemostat, doubling time 12 h
[8] = wild type E. coli NCM3722, growth: P-lim chemostat, doubling time 6 h
[9] = wild type E. coli NCM3722, growth: P-lim chemostat, doubling time 12 h
[10] = E. coli NCM3722 delta-clpP delta-lon delta-hslV, growth: N-lim chemostat, doubling time 6 h
[11] = E. coli NCM3722 delta-hslV, growth: N-lim chemostat, doubling time 6 h
[12] = E. coli NCM3722 delta-smpB, growth: N-lim chemostat, doubling time 6 h

Sequence | total protein half-life in vivo [1] [h] | total protein half-life in vivo [2] [h] | total protein half-life in vivo [3] [h] | total protein half-life in vivo [4] [h] | total protein half-life in vivo [5] [h] | total protein half-life in vivo [6] [h] | total protein half-life in vivo [7] [h] | total protein half-life in vivo [8] [h] | total protein half-life in vivo [9] [h] | total protein half-life in vivo [10] [h] | total protein half-life in vivo [11] [h] | total protein half-life in vivo [12] [h]
MMNTEGNNGNKPLGLWNVVSIGIGAMVGAGIFALLGQAALLMEASTWVAFAFGGIVAMFSGYAYARLGASYPSNGGIIDFFRRGLGNGVFSLALSLLYLLTLAVSIAMVARAFGAYAVQFLHEGSQEEHLILLYALGIIAVMTLFNSLSNHAVGRLEVILVGIKMMILLLLIIAGVWSLQPAHISVSAPPSSGAFFSCIGITFLAYAGFGMMANAADKVKDPQVIMPRAFLVAIGVTTLLYISLALVLLSDVSALELEKYADTAVAQAASPLLGHVGYVIVVIGALLATASAINANLFAVFNIMDNMGSERELPKLMNKSLWRQSTWGNIIVVVLIMLMTAALNLGSLASVASATFLICYLAVFVVAIRLRHDIHASLPILIVGTLVMLLVIVGFIYSLWSQGSRALIWIIGSLLLSLIVAMVMKRNKTV | 6.11 | – | – | – | – | – | – | – | – | – | – | –
MMQHQVNVSARFNPETLERVLRVVRHRGFHVCSMNMAAASDAQNINIELTVASPRSVDLLFSQLNKLVDVAHVAICQSTTTSQQIRA [P0ADG1] | 0.96 | 0.664 | 0.829 ± 0.59 | 0.318 | 0.533 | 0.823 | 0.848 ± 0.14 | 0.343 | 0.967 ± 0.53 | – | – | –
MMQPVINAPEIATAREQQLFNGKNFHVFIYNKTESISGLHQHDYYEFTLVLTGRYFQEINGKRVLLERGDFVFIPLGSHHQSFYEFGATRILNVGISKRFFEQHYLPLLPYCFVASQVYRTNNAFLTYVETVISSLNFRETGLEEFVEMVTFYVINRLRHYREEQVIDDVPQWLKSTVEKMHDKEQFSESALENMVALSAKSQEYLTRATQRYYGKTPMQIINEIRINFAKKQLEMTNYSVTDIAFEAGYSSPSLFIKTFKKLTSFTPKSYRKKLTEFNQ | – | – | 1.18 ± 0.012 | 1.89 ± 0.2 | 1.55 | – | – | – | – | 5.04 ± 0.62 | – | –
MMSAPKITFIGAGSTIFVKNILGDVFHREALKTAHIALMDIDPTRLEESHIVVRKLMDSAGASGKITCHTQQKEALEDADFVVVAFQIGGYEPCTVTDFEVCKRHGLEQTIADTLGPGGIMRALRTIPHLWQICEDMTEVCPDATMLNYVNPMAMNTWAMYARYPHIKQVGLCHSVQGTAEELARDLNIDPATLRYRCAGINHMAFYLELERKTADGSYVNLYPELLAAYEAGQAPKPNIHGNTRCQNIVRYEMFKKLGYFVTESSEHFAEYTPWFIKPGREDLIERYKVPLDEYPKRCVEQLANWHKELEEYKKASRIDIKPSREYASTIMNAIWTGEPSVIYGNVRNDGLIDNLPQGCCVEVACLVDANGIQPTKVGTLPSHLAALMQTNINVQTLLTEAILTENRDRVYHAAMMDPHTAAVLGIDEIYALVDDLIAAHGDWLPGWLHR | 2.52 ± 0.52 | 2.73 | 3.25 ± 0.39 | 4.25 ± 0.26 | 8.03 ± 1.2 | 1.97 | – | 4.92 ± 0.48 | 9.8 ± 0.35 | 4.14 | 1.5 | –
MMSGEHTLKAVRGSFIDVTRTIDNPEEIASALRFIEDGLLLIKQGKVEWFGEWENGKHQIPDTIRVRDYRGKLIVPGFVDTHIHYPQSEMVGAYGEQLLEWLNKHTFPTERRYEDLEYAREMSAFFIKQLLRNGTTTALVFGTVHPQSVDALFEAASHINMRMIAGKVMMDRNAPDYLLDTAESSYHQSKELIERWHKNGRLLYAITPRFAPTSSPEQMAMAQRLKEEYPDTWVHTHLCENKDEIAWVKSLYPDHDGYLDVYHQYGLTGKNCVFAHCVHLEEKEWDRLSETKSSIAFCPTSNLYLGSGLFNLKKAWQKKVKVGMGTDIGAGTTFNMLQTLNEAYKVLQLQGYRLSAYEAFYLATLGGAKSLGLDDLIGNFLPGKEADFVVMEPTATPLQQLRYDNSVSLVDKLFVMMTLGDDRSIYRTYVDGRLVYERN | 3.95 ± 0.22 | 4.12 ± 0.085 | 3.26 ± 0.59 | 6.35 ± 1.1 | 10.2 ± 0.27 | 3.78 ± 0.16 | 7.14 ± 1.4 | 5.87 | – | 5.05 ± 0.34 | 4.26 ± 0.28 | 3.79 ± 0.042
MMVTVVSNYCQLSQTQLSQTFAEKFTVTEELLQSLKKTALSGDEESIELLHNIALGYDKFGKEAEDILYHIVRTPTNETLSIIRLIKNACLKLYNLAHIATNSPLKSHDSDDLLFKKLFSPSKLMTIIGDEIPLISEKQSLSKVLLNDENNELSDGTNFWDKNRQLTTDEIACYLQKIAANAKNTQVNYPTGLYVPYSTRTHLEDALNENIKSDPSWPNEVQLFPINTGGHWILVSLQKIVNKKNNKLQIKCVIFNSLRALGYDKENSLKRVINSFNSELMGEMSNNNIKVHLNEPEIIFLHADLQQYLSQSCGAFVCMAAQEVIEQRESNSDSAPYTLLKNHADRFKKYSAEEQYEIDFQHRLANRNCYLDKYGDANINHYYRNLEIKHSQPKNRASGKRVS | – | – | – | – | – | – | – | – | – | 6.83 | – | –
MNAEKSPVNHNVDHEEIAKFEAVASRWWDLEGEFKPLHRINPLRLGYIAERAGGLFGKKVLDVGCGGGILAESMAREGATVTGLDMGFEPLQVAKLHALESGIQVDYVQETVEEHAAKHAGQYDVVTCMEMLEHVPDPQSVVRACAQLVKPGGDVFFSTLNRNGKSWLMAVVGAEYILRMVPKGTHDVKKFIKPAELLGWVDQTSLKERHITGLHYNPITNTFKLGPGVDVNYMLHTQNK | 4.09 ± 0.23 | 4.02 ± 0.45 | 2.45 ± 0.027 | 4.96 ± 0.83 | 6.694 ± 0.058 | 3.85 ± 0.49 | 5.66 ± 0.72 | 3.13 ± 0.38 | 5.66 ± 0.45 | 4.74 ± 0.1 | 3.48 ± 0.11 | 3.46 ± 0.082
MNAIISPDYYYVLTVAGQSNAMAYGEGLPLPDREDAPHPRIKQLARFAHTHPGGPPCHFNDIIPLTHCPHDVQDMQGYHHPLATNHQTQYGTVGQALHIARKLLPFIPDNAGILIVPCCRGGSAFTAGSEGTYSERHGASHDACRWGTDTPLYQDLVSRTRAALAKNPQNKFLGACWMQGEFDLMTSDYASHPQHFNHMVEAFRRDLKQYHSQLNNITDAPWFCGDTTWYWKENFPHSYEAIYGNYQNNVLANIIFVDFQQQGERGLTNAPDEDPDDLSTGYYGSAYRSPENWTTALRSSHFSTAARRGIISDRFVEAILQFWRER | 3.59 ± 0.15 | – | 3.16 | – | 8.77 ± 0.83 | 3.38 | – | 5.15 ± 0.32 | 13.2 | 5.07 ± 0.92 | 3.413 ± 0.026 | 3.46 ± 0.15
